Source: patent US6174679

Target: T1, CIF150/hTAFII150 (Homo sapiens) (UniProt Q6P1X5)
T1 sequence: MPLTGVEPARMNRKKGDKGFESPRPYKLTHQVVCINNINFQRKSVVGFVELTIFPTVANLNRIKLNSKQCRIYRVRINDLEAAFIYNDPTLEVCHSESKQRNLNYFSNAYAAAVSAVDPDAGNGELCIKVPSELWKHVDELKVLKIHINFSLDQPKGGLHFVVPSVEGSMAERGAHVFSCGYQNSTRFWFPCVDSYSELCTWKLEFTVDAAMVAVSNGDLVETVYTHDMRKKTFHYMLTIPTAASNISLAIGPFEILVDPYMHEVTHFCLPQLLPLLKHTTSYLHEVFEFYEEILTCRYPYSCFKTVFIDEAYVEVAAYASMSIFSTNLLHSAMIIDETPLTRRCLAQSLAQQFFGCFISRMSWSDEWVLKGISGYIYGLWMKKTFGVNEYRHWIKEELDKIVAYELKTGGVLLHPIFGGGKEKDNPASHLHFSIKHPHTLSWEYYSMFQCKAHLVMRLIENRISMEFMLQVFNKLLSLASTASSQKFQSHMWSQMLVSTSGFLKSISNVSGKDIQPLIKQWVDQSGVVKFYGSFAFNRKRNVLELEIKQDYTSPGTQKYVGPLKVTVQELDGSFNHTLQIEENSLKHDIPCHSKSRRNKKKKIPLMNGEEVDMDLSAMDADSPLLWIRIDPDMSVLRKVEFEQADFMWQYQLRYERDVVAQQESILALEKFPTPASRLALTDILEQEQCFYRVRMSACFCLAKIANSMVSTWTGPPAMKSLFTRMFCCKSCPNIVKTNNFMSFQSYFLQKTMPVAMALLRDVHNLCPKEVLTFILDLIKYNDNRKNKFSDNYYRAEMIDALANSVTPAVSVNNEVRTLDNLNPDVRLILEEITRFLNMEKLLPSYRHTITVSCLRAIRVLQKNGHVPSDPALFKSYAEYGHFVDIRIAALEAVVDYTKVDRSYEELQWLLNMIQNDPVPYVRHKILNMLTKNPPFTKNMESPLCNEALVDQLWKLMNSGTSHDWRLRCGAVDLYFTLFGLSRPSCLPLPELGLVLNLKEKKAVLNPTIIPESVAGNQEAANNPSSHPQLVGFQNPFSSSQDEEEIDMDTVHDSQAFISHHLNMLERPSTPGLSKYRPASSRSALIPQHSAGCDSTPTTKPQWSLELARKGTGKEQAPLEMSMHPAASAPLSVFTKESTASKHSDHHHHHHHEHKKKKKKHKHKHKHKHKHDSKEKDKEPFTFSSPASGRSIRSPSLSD
Test: EMSA
Details: affinity improvement after selection (text gives both three and four rounds); dGdC competitor; supershifted by anti-CIF150 serum

## GAG (double strand) [selected CBE fragments with GAG core]
  binding signal: 5 fold
